From patent US20210403546A1 (LUDWIG INSTITUTE FOR CANCER RESEARCH, published 2021)

Assays:
[1] = target: T1, human recombinant TGF-b1 (human, UniProt P01137 279-390); test: TGFb specificity ELISA, HEK293-6E supernatant
T1 construct: also called TGF-β1; hTGF-β1

[2] = target: T1, human recombinant TGF-b1; test: phage ELISA on plate-coated TGF-b1, anti-fd detection
Experimental: (§1) To perform the ELISA a 96-well maxisorp Nunc-immunoplate (Thermo Scientific, cat. #2022-10) was coated with 50 μl/well of human recombinant TGF-b1 (Acrobiosystems, cat. #TG1-H4212), TGF-b2 (R&D Systems, cat. #302-B2-010) and human recombinant TGF-b3 (Shenandoah Biotechnology, cat. #100-109) at 500 ng/ml in PBS at 4° C. overnight. Wells were blocked by the direct addition of 230 μl of block solution (5% skimmed milk/0.05% Tween20 in PBS) without first washing the plate. Blocking was carried out for 45 min with gentle agitation. Concurrently, the bacterial cultures containing the expressed scFv and the rescued phage were blocked by the direct addition of 120 μl of block solution. The blocked maxisorp plate was washed 3× with PBST (PBS+0.1% Tween20) before applying 150 μl of blocked scFv or phage culture to the wells. Incubation was performed for 1 h at room temperature with gentle agitation before washing of the wells with 4×PBST.
For the phage ELISA, 100 μl of primary rabbit anti-fd bacteriophage Ab (Sigma, cat. #B7786) diluted 1/1000 in PBS+1% BSA was added to wells followed by a 1 h incubation at room temperature with gentle agitation. The plate was washed 4× with PBST before the addition of 100 μl of secondary mouse anti-rabbit IgG (Y-chain specific) HRP conjugate (Sigma, cat. #A1949) diluted 1/15000 in PBS+1% BSA. […]

[3] = target: T1, human recombinant TGF-b1; test: ELISA, soluble scFv on plate-coated TGFb isoforms
Experimental: as §1
For the scFv ELISA, 100 μl of primary mouse 9E10 anti-cmyc Ab diluted 1/1000 in PBS+1% BSA was added to wells, followed by a 1 h incubation at room temperature with gentle agitation. […] The ELISA was developed by the addition of 100 μl/well of TMB substrate (ThermoFischer Scientific, cat. #34021), stabilized with 50 μl/well of stop solution (2N sulfuric acid) and absorbance signals read at 450 nm and 620 nm.

[4] = target: T1, human recombinant TGF-b1; test: SPR (Biacore T200), 10 nM Fab over amine-coupled TGFb1 (492 RUs); reference of the ranking
Experimental: FIG. 27 provides Biacore analysis of the new mutant variant antibodies and compares the new mutants versus parent variant 13A1-2F and versus mu13A1. Selected variants have different monovalent (huIgG1 stabilized Fab format). Biacore binding kinetics, range from lower to higher than the parental mouse 13A1 (mu13A1, hybrid with mouse VK/VH and huCK/huCH1). The data presented is ka, kd and apparent KD. TGFb1 (chip): 492 Rus, Fabs: 10 nM, Flow rate: 30 ul/min, Contact time: 510s, Diss. Time: 600s. Quality: Chi(2)<=1% Rmax and U score <=5. Data is presented for mutant variant antibodies 13A1_AF, 13A1_AG, 13A1_AH, 13A1_BF, 13A1_BG, 13A1_BH, 13A1_CF, 13A1_CG, 13A1_CH, 13A1_DF, 13A1_DG, 13A1_DH, 13A1_EF, 13A1_EG and 13A1_EH.
SPR binding analysis of Fabs: Experiments were performed using the Biacore T200 equipped with the Series S sensor chip CMS (GE Healthcare, cat. #BR-1005-30). The instrument temperature was set at 25° C. for all steps in the analysis while the compartment temperature was set at 10° C. All the assays were performed using the running buffer HBS-EP+ 1×. Recombinant TGF-β1 (Biocat, cat. #TG1-H4212-50 ug-AC) was immobilized with the standard amine-coupling chemistry using a solution of the ligand at 1 ug/mL in acetate, pH 4.5. Recombinant TGF-β1 was injected for several minutes to achieve a target density of 492 RUs. […]

T1 sequence (P01137 279-390 limits assumed): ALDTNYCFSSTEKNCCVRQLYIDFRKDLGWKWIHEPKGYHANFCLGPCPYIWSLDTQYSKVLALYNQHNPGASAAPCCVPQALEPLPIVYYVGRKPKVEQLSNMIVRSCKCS

B1: 13A1_Glv1 (graft) human IgG1 (antibody, V domains shown)
VH: QVQLVQSGAEVKKPGASVKVSCKASGYTFTNYWMHWVRQAPGQGLEWIGTIYPGNSDTNYNQKFKGRVTMTRDTSTSTVYMELSSLRSEDTAVYYCTREDSRSLYYNGWDYFDYWGQGTLVTVSS
VL: DIVLTQSPASLAVSPGQRATITCRASESVDNYGISFLNWYQQKPGQPPKLLIYAASNQGSGVPARFSGSGSGTDFTLTINPVEADDTANYYCQQSKEVPRTFGGGTKVEIK
notes: also called LCR13A1_GLv1; grafted human IgG1 13A1
B1: binds [1].

B2: LCR13A1 Phage (murine 13A1 scFv fused to pIII on filamentous phage) (scFv)
scFv: DIVLTQSPASLAVSLGQRATISCRASESVDNYGISFLNWFQQKPGQPPKLLIYAASNQGSGVPARFSGSGSGTDFSLNIHPMEEDDTGMYFCQQSKEVPRTFGGGTKLEIKRTVAARQEGGSGEGGSGESNAAAEVQLQQSGTVLARPGASVKMSCKTSGYTFTNYWMHWVRQRPGQGLEWIGTIYPGNSDTNYNQKFKDKAKLTAVTSATTAYMELSSLTNEDSAVYFCTREDSRSLYYNGWDYFDYWGQGTLVTVSSASTKAS
notes: not shown: pIII coat protein of filamentous bacteriophage (fusion partner from phagemid pCHV101)
B2: binds [2].

B3: 13A1_GLv1_scFv (CDR-grafted scFv, IGKV7-3*01/IGHV1-46*01) (scFv)
scFv: DIVLTQSPASLAVSPGQRATITCRASESVDNYGISFLNWYQQKPGQPPKLLIYAASNQGSGVPARFSGSGSGTDFTLTINPVEADDTANYYCQQSKEVPRTFGGGTKLEIKRTVAARQEGGSGEGGSGESNAAAQVQLVQSGAEVKKPGASVKVSCKASGYTFTNYWMHWVRQAPGQGLEWIGTIYPGNSDTNYNQKFKGRVTMTRDTSTSTVYMELSSLRSEDTAVYYCTREDSRSLYYNGWDYFDYWGQGTLVTVSSASTKAS
notes: Orientation VK-linker-VH; expressed in E. coli from pCHV101; also called LCR13A1_Glv1 scFv
B3: binds [3].

B4: 13A1 mouse parental hybrid stabilized Fab (mu13A1) (Fab, V domains shown)
VH: EVQLQQSGTVLARPGASVKMSCKTSGYTFTNYWMHWVRQRPGQGLEWIGTIYPGNSDTNYNQKFKDKAKLTAVTSATTAYMELSSLTNEDSAVYFCTREDSRSLYYNGWDYFDYWGQGTTLTVSS
VL: not shown
notes: also called parental mouse Fab [chimeric, mVHhCH1/mVKhCK]; LCR13A1_VK(murine) + LCR13A1_VH(murine)
B4: binds [4].
